Data as given in the nanobody polyreactivity screen of Harvey et al. (2022).

Experiment: yeast display, Sf9 membrane polyspecificity reagent, FACS + sequencing; frameworks hold sequencing errors
How it was run: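 After 36–48 hours of galactose induction, yeast (Saccharomyces cerevisiae BJ5465) displaying a synthetic nanobody library were stained at 4 °C for 1 hour with 10% biotinylated, detergent-solubilized Sf9 membrane reagent. Streptavidin microbeads enriched the stained cells before FACS sorting into low and high (top ~1%) gates on anti-HA and streptavidin fluorescence. Each clone's polyreactivity label reflects its gate of origin.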

Sequence	polyreactivity (PSR sort gate)
QVQLVESGGGLVQAGGSLRLSCAASGRTFNEYAMGWYRQAPGKERELVAAISSSGDSTYYADSVKGRFTISRDNAKNTVYLQMNSLKPEDTAVYYCAAQVVVWYPYVYFPGYDYWGQGTQVTVSS	low polyreactivity
QVQLVESGGGLVQAGGSLRLSCAASGSTFVGYAMGWYRQAPGKERELVAAISGGDSTYYADSVKGRFTLSRDNAQNTVYLQKNSLNPEDTALYYCAVGWTFDRRGYGYWGQGTQVTVSS	low polyreactivity
QVQLVESGGGLVQAGGSLRLSCAASGRIFSYYDIGWYRQAPGKERELVAAITGGGRTIYADSVKGRFTISRDNAKNTVYLQMNILKTEDTAVYYCNARARSRKFYYWGQGTQVTVSS	high polyreactivity
QVQLVESGGGLVQAGGSLRLSCAASGSTFWYYAMGWYRQAPGKERELVAGITQSGGSTYYADSVKGRFTISRDNEKNTVYLQMNRLKPEDTAVYYCAKDGRVSGDFDYWGQGTQVTVSS	low polyreactivity
QVQLVESGGGLVLAGGSLRLSCAASGNTFRYYAMGWYRQAPGKERELVADITIGGSTYYADSVKGRFTISRDNAKNTVYLQMNSLKPEDTAVYYCATDPDWGYYDAPYGYWGQGTQVTVSS	low polyreactivity
QVHHVESGGGLVQAGGSLRLSCAASGIIFGYNVMGWYRQEPGKVRELVAAMRYSGGSTYYADSVKGSFTISRDNAKNTVYLQMNSLKPEDTAVYYCATYSAVRELLWGNGYWGQGTQVTVSS	high polyreactivity
QVQLVESGGGLVQAGGSLRLSCAASGSIFPPYAMGWYRQAPGKERELVATITIRGGSTYYADSVKGRFTISRDNAKNSVYLQMNSLKPEDTAVYYCAADYTKYYRRYYYWGQGTQVTVSS	high polyreactivity
QVQLVESGGGLVQAGGSLRLSCAASGRIFQKYAMVWYRQAPGKERELVAAISSGDSTYADSVKGRFSISRDNAKNTVYLQMNSLKPEDTAVYYCAGDLYDPWWYSYMGEYEYWGQGTQVTVSS	low polyreactivity
QVQLVESGGGLVQAGGSLRLSCAASGRIFYQYAMGWYRQAPGKERELVAAIRYRDDGTYYADSVKGRFTISRDNAKNTVYLQMNSLQPEDTAVYYCAAKQWGRYGYWGQGTQVTVSS	high polyreactivity
QVQLVESGGGLVQAGGSLRLSCAASGSTVYASVMGWSRQAPGKARELVAAITSAGSTDYADSVKGRFTISRDNAKNTVYLQMNSRKPEDTAVYYCAADAYTDSPYYKYDYWGQGTQVTVSS	low polyreactivity
QVQLVESGGCLVQAGGSLRLSWAASGRTLGGYALGWYRQAPGKERELVAAINRSGTRTYYADSVKGRFTISRDKAKNTVYLQFNSLKPEDTAVYYCAASWYPGSRNYDYGGQGTQVTVSS	high polyreactivity
QVQLVESGGGLVQAGGSLRLSCAASGRTFTQYAMGWYRQAPGKERELVAAIDYRGSRTYYADSVKGRFTISRDNAKNTVYLQMNSLKPEDTAFYYCNTVHRFGTYDYWGQGTQVTVSS	high polyreactivity
QVQIVESGGGLVQPGGSLRLSCAASGRIFGRNAMGWYRQAPGKEWELVAAITTSASRTYYADSVKGRFTISRDNAKNTVYLQMNSLKPEDTAVYYCAARPSWYWYKGDYWGQGTQVTVSS	high polyreactivity
QVQLVESGGGLVQAGGSLRLSCAASGRIFTNYAMGWYRQAPGKERELVATINGGGITNYADSVKVRFTISRDNAKNTVYLQMNSLKPEDNAVYYCATDRLSYGYKPGYTFYYWEQGTQVTVSS	high polyreactivity
QVQLVESGAGLVQAGGSLSLSCAASGSIWLYAMGWYRQAPGKEREFVAAITRRGSSTYYADSVKGRFTISRDNAKNPVLLQMNSLKPEDTAVYYCAGVSQYGKWRGDYWGQGTQVTVSS	high polyreactivity
QVQLVESGGGLVQAGGSLRLSCAASGSIFTVYAMGWYRPAPGKEREFVAAITGSGGRTYYADSVKGRFTISRDNAKNTVYLQMNSLKPEDTAVYYCAATTRPGYRYEGDYWGQGTQVTVSS	low polyreactivity
QVQLVESGGGLVKAGGSLRLSCAASGLIFKLNAMGWYRQSPGKERELVAAIRASTGSTYYADSVKGRFTISRDNAKNTVYLQMNSLKPEDTAVYYCAVSLRWYFFLMDYWGQGTQVTVSS	high polyreactivity
QVQLVESGGGLVQAGGSLRLSCAASGGIFDYYAMGWYRQAPGKERELVAAIRGGGSTNYADSVKGRFTISRDNAKNTVYLQMNSLKPEDTAVYYCAKRAGPEYDYWGQGTQVTVSS	low polyreactivity
QVQLVESGGGLVQAGGSLRLSCAASGYILWNAMGWYRQAPGKERELVAAIRFRGGSTSYADSVKGRFTISRDNAKNTVYLQMNSLKPEDTAVYYCNARWWVIRPYQRHDYWGQGTQVTVSS	low polyreactivity
QVQLVESGGGLVQAGGSLRLSCAASGSIFYTNAMGWYRQAPGKERELVATITSSTGSTNYADSVKGRFTISRDNAKNTVYLQMNSLKPEDTAVYYCAKRDCYWVYYQMDYWGQGTQVTVSS	low polyreactivity
QVQLVESGGGLVQAGGSLRLSCAASGSTFNVYSMGWYRQAPGKERELVAAIDTGDGSTFYADSVKGRFTISRDNAKNTVYLQMNSLKPEDTAVYYCAAEFWAIVDGDYCGQGTQVTVSS	high polyreactivity
QVQLVESGGGLVQAGGSLRLTGAASGRIFRSYAMGWYRQAPGKERELVASISGSTTYYADSVKGRFTISRDNAKNTVYLQMNSLKPEDTAVYYCAVKYDAWGYGYRHFDYWGQGTQVTVSS	low polyreactivity

Sequence	polyreactivity (PSR sort gate)
QVQLVESGGGLVQAGGSLRLSCAASGRTFYTYAMGWYRQAPGKERELVASISRSGSGTFYADSVKGRFTISRDNAKNTVYLQMNSLKPEDTAVYYCNAVSAAKIPFQKYGYWGQGTQVTVSS	high polyreactivity
QFQLVESGGGLVPARGSLRLSCAASGLIFKRNAMGWYRQAPGKERELDASNSGRGGSTYYADSLTGRFTISRDNAKKTVYLQMNSLKPEDTAVYFCAADGPPLGRPSYRLFYGYDYWGQGSQVTVSS	high polyreactivity
QVQLVESGGGLVQAGGSLRLSCAASGSTLQRYAMGWYRQAPGKEREFVAAINWSGSNTYYADSVKGRFTISRDNAKNTVYLQMNSLKPEDTAVYYCATNTWLFGGNYWGQGTQVTVSS	high polyreactivity
QVQLVESGGGLVQAGGSLRLSCAASGSTFQYNAMGWYRQAPGKERELVAAISLSGGSTYYADSVKGRFTISRDNAKNTVYLQMNSLKPEDTAVYYCATEYYVYDYYYWAWYGYEYWGQGTQVTVSS	high polyreactivity
QVQLVESGGGLVQAGGSLRLSCAASGSIFPGYALGWYRQAPGKERELVATIRWSSGSRTNYADSVKGRFTISRENAKKTVYLQMNSLKPEDSAVYYCAAGSRRYKYDYWGQGTQVTVSS	high polyreactivity
QVQLVESGGGLVQAGGSLRLSCAASGITFPQYAMGWYRQAPGKERELVAAITSGGSTNYADSVKGRFTISRDNGKNTVYLQMNSLKPEDTGVYYCNTAGYYWLHYTMDYWGQGTQVTVSS	high polyreactivity
QVQLVESGGGLVQAGGSLRLICAASGSTFNYNAMGWYRQAPGKERELVAAISSSGGSTYYADSVKGRFTISRDNAKYTVYLQMNSLKREDTAVYYCAASGGYGQYNYWGQGTQVTVSS	low polyreactivity
QVQIVESGGGLVQAGGSLRLSCAPSGSTFWLYAMGWYRHAPGKERELVASISSRGGSTYYADSVTGRFTISRDNAKNTVYLQMNSLKPEDTAVYYCAAKDIRYDDEYWGQGTQVTVSS	low polyreactivity
QVQLVESGGGLVQAGGSLRLSCAASGFTFLTYAMGWYRQAPGKERELVAAIDSGDSTKYADSVKGRFTISLDNAKNTVYLQMNSLKPEDTAVYYCNASRRYHVRAPYDYWGQGTQVTVSS	low polyreactivity
QVQLVESGGGLVQAGGSLRLSCAASGLTFYRNVMGWYRQAPGKERELVAVITSGGRTNYADSVKGRFTISRDNAKNTVYLQMNSLKPEDTAVYYCNTALSSRSNKMYYWGQGTQVTVSS	high polyreactivity
QVQLVESGGGLVQAGGSLRLSCAASGLTIYAYAMGWYRQAPGKERELVAIISYNGGRTYYADSVKGRFTISRDNAKNTVYLQMNSLKPEDTAVYYCAARGREVRYDYWGQGTQVTVSS	high polyreactivity
QVQLVESGGGLVQAGGSLRLSCAASGIIFRANAMGWYRQAPGKERELVAAISSSGGSTFYADSVKGRFTISRDNAKNTVYLQMNSLKPEDTAVYFCAAGRSKFAWSEYEYWGQGTQVSVSS	low polyreactivity
QVQLVESGGGLVQAGGSLRLSCAASGRTFRVYAMGWYRQAPGKERELVAAISWSDGSTYYADSVKGRFTISRDYAKNTVYLQMNSLKPEDTAVYYCNARVRVPVTLHDYWGQCTQVTVSS	high polyreactivity
QVQLVESGGGLDQAGGSLRLSCAASGYILPKNTMGWYRQAPGKERELVAAISWSGGSTFYADSVKGRFTISRDNAKNTVYLQMNSLKPEETAVYYCAADRSWSWYYRYDYWGQGTQVTVSS	low polyreactivity
QVQLVESGGGLVQAGGSLRLSCAASGSTFYVNAMGWYRQAPGKERELVAAISSGGSTYYADSVKGRFTISRDNAKNTVYLQMNSLKPEDTAVYYCAAASPWGSDYDYWGQGTQVTVSS	low polyreactivity
QVQLEESGGCLVQAGGSLRLSCAASGSTFVYNVMGWYRQAPGKERELVAAITSGVRTYYADSVKGRFTISRDNAKNTVYLQMNSLKPEDTAGYYCATGWRYAKYYYWGQGTQVTVSS	high polyreactivity
QVQLVESGGGLFQAGGSLRLSCAASGSTFIYYVMGWYRQAAGKVWELVAAISTSGGRTYYADSVKGRYTISRDNAMNTVSLLMNSLKPVVTAVYYCAAVARTNGSIKFESWGQGTQVTVSS	high polyreactivity
QVQLVESGGGLVQAGGSLRLSCAAYYAMGWYRQAPGKERELVAAIDDGTSTNYADSVKGRFTISRDNAKNTVYLQMKSLKPEDTAVYYCNKLSEVTYYGSKFDYWGQGTQVTVSS	low polyreactivity
QVQLVESGGGLVQAGGSLRLSCAASGRTYQDNAMGWYRQEPGTERELVAAISFNSDSTYYADSVKGRFTISRDNAKNTVYLQMNSLKPEDTAVYYCAAQVVPTLYLRPLDYWGQGTQVTVSS	low polyreactivity
QVQLVESGGGLVQAGGSLRLSCAASGSTFRFYAMGWYRQAPGKERELVAAISSGGSTNYADSVKGRFTISRDNAKNTVYLQMNSLKPEDTAVYYCNAEDYNGRQYYHKMDYWGQGTQVTVSS	high polyreactivity
QVQLVESGGGLVQAGGSHRLSCAASGLTFFTYAMGWYRQAPGKERELVATISSRGGRTYYADSVKGRFTISRDNAKNTVYLQMNSLKPEDTAVYYCAARGVWKSKHNYWGQGTQVTVSS	high polyreactivity
